Measurements: PMC3597040

Columns and labels:
[1] = target: AfTrax (Archaeoglobus fulgidus Trax homologue, AF2260), wild type (Archaeoglobus fulgidus); test: SEC
[2] = target: AfTrax (Archaeoglobus fulgidus Trax homologue, AF2260), wild type (Archaeoglobus fulgidus); test: crystal structure
[3] = target: AfTrax D114A catalytic mutant (Archaeoglobus fulgidus); test: crystal structure

| Substance | stoichiometry N [1] | stoichiometry N [2] | stoichiometry N [3] |
| --- | --- | --- | --- |
| AfTrax (Archaeoglobus fulgidus Trax homologue, AF2260), wild type (natural protein) | 8 | 8 |  |
| AfTrax D114A catalytic mutant (natural protein) |  |  | 8 |
